Source: patent US20030027251

Biological target: bacteriophage λ cII protein (UniProt P03042)

Substance	fold induction of β-galactosidase (induced/uninduced), strain SYKD006; reference SYKD004 without plasmid ftsH: 21 [fold]	fold induction of β-galactosidase, strain SYKD006	β-galactosidase level against arabinose used to induce FtsH(E415A), strain SYKD008	fold induction of β-galactosidase (induced/uninduced), strain SYKD005; reference SYKD004 without plasmid ftsH: 21 [fold]	fold induction of β-galactosidase, strain SYKD005	β-galactosidase level against arabinose used to induce FtsH, strain SYKD007
FtsH(E415A), protease-deficient mutant of FtsH	26	This reduction in the expression of lacZ was not observed in the presence of FtsH (E415A)	inducing the strain SYKD008 at different concentrations of arabinose did not have any effect on the levels of β-galactosidase being produced	–	–	–
E. coli FtsH	–	–	–	10	the fold induction of β-galactosidase was reduced to half when cII was induced with IPTG in the presence of FtsH	in SYKD007 the level of β-galactosidase appeared to be directly correlated to the amount of arabinose used for induction
